From patent US8246957 (dated 2012)

Assays:
Experiment in all cases: cell-based or functional assay
[1] = target: T1, gp120 of HIV-1 primary isolate ZA009 (clade C) (HIV-1 strain ZA009)
[2] = target: gp120 of HIV-1 primary isolate Ug046 (clade D) (HIV-1 strain Ug046)
[3] = target: gp120 of HIV-1 primary isolate strain 23135 (clade B) (HIV-1 strain 23135)
[4] = target: T1, gp120 of HIV-1 primary isolate ZA009 …; remark: listed apart in the source

B1: Fv JL427 (scFv)
scFv: QSVLTQPPSVSGAPGQRVTISCSGSSSNFGLNYVTWQGHFPGTAPKLLIYRNDQRPLGVPARFSGSKSGTSASLAISGLRSEDEADYYCQSYDNSLSGWVFGGGYQLYVLGSSGGGGSGGGGSGGSAQVQLQQSGGGLVQPGRSLRLSCAASGFTFSSYGMHWVRQAPGKGLEWVSYIGRSGSHTNYADSVKGRFTISRDNSKNTLYLQINSLRAEDTAVYYCARGLPNYGMDIWGQGTTVTVSS
[1]
  IC50, HIV-1 neutralization, independent preparations (N=3, mean and s.d.): 0.3 µg/mL
[2]
  IC50, HIV-1 neutralization (p24, PBMC hosts): 5.5 µg Ab fragment/ml
  IC90, HIV-1 neutralization (p24, PBMC hosts): 12.7 µg Ab fragment/ml
[3]
  IC50, HIV-1 neutralization (p24, PBMC hosts): 22.4 µg Ab fragment/ml
  IC90, HIV-1 neutralization (p24, PBMC hosts): 36.7 µg Ab fragment/ml
[4]
  IC50, HIV-1 neutralization (p24, PBMC hosts): 0.3 µg Ab fragment/ml
  IC90, HIV-1 neutralization (p24, PBMC hosts): 5.7 µg Ab fragment/ml
